Experimental findings from article doi:10.1101/2021.11.12.467822 (bioRxiv, 2021) are described below.

Assay [1] has as its target M1-linked Ub4 (UniProt P0CG48). The assay can be described thus: NMR titration.
Assay [2] deals with HOTag6-G10-Ub. The assay can be described thus: NMR titration.
For assay [3], the target named is M1-linked Ub4 (UniProt P0CG48). The assay is described as follows: fluorescence polarisation.
Assay [4] concerns the target ubiquitin (Ub) (UniProt P0CG48 1-76). The assay can be described thus: fluorescence polarisation.
Assay [5] deals with HOTag6-G10-Ub. The assay can be described thus: fluorescence polarisation.

Chain of M1-linked Ub4 (P0CG48 1-304): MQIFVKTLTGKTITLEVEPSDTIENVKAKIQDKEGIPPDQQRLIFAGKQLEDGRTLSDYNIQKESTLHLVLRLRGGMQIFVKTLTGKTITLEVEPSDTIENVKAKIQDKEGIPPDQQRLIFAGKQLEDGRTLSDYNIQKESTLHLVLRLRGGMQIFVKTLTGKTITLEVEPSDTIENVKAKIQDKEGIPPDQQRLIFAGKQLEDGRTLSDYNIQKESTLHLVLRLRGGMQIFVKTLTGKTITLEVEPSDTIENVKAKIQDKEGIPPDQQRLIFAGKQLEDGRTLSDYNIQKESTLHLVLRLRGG

B1: UBQLN2 450-624 (domain or fragment)
chain: RAMQALMQIQQGLQTLATEAPGLIPSFTPGVGVGVLGTAIGPVGPVTPIGPIGPIVPFTPIGPIGPIGPTGPAAPPGSTGSGGPTGPTVSSAAPSETTSPTSESGPNQQFIQQMVQALAGANAPQLPNPEVRFQQQLEQLNAMGFLNREANLQALIATGGDINAAIERLLGSQPS
Regarding B1, the results for the Kd in assay [1] and in assay [2] were 12.8 µM and 8.8 µM, respectively.

B2: fluorescently-labeled UBQLN2 450-624 (S624C, Alexa Fluor 488) (domain or fragment)
chain: RAMQALMQIQQGLQTLATEAPGLIPSFTPGVGVGVLGTAIGPVGPVTPIGPIGPIVPFTPIGPIGPIGPTGPAAPPGSTGSGGPTGPTVSSAAPSETTSPTSESGPNQQFIQQMVQALAGANAPQLPNPEVRFQQQLEQLNAMGFLNREANLQALIATGGDINAAIERLLGSQPC
modifications: Alexa Fluor 488 C5 Maleimide label (S624C mutation)
In the case of B2, the figures for the Kd in assay [3], in assay [4] and in assay [5] were 5.1 µM, 3.4 µM and 7 µM, respectively.
